Data as given in the supplement of paper PMC6757056.
± gives the standard deviation of the averaged measurements.

B1: library; a variant is named by its letters at N, in order (parent)
chain: GCUGUCACCGGUGCUUGGUACGUUAUAUUCAGCCGGUCUGAUGAGUCUNNNNNNAGACGAAACAGC

How the values were obtained:
(6R,S)-folinic acid [1] = variants of: B1; experiment: FACS-Seq fitted mean relative fluorescence mCherry/BFP without ligand (log10 relative fluorescence); HEK293T overexpressing SLC46A1; higher = higher reporter protein expression; details: without (6R,S)-folinic acid; ligand present: no
Procedure, shortened: (§1)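 HEK293T libraries were lentivirally transduced with an mCherry reporter carrying the ribozyme switch and an EF1α-BFP marker, enriched, and incubated for 48 h with or without ligand before sorting into 6 bins by mCherry/BFP. Genomic DNA from each bin was PCR-amplified, barcoded and sequenced on MiSeq. Fluorescence is the fitted normal mean of the bin counts. The fit used log10(mCherry/BFP), and means were scaled to five spiked-in control ribozymes.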

(6R,S)-folinic acid [2] = variants of: B1; experiment: normalized RNA/DNA level without ligand (relative to sTRSVctl = 100) (log10 (% of sTRSVctl)); HEK293T overexpressing SLC46A1; higher = less ribozyme self-cleavage, higher mRNA level; details: without (6R,S)-folinic acid; ligand present: no
Procedure, shortened: (§2)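 Total RNA, extracted with EDTA 72 h after HEK293T cells were transfected with 4 µg per 6-well well of reporter-linked ribozyme switch library plasmids, was reverse-transcribed, amplified, barcoded and sequenced. Ligand, if used, was added 1 h before transfection. RNA level was derived from RNA reads divided by DNA reads and normalized to a spiked-in non-cleaving sequence or to the top sequences. This was multiplied by 100 and log10-transformed, with the top set of 25 sequences and a ≥100 DNA read minimum.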

(6R,S)-folinic acid [3] = variants of: B1; experiment: FACS-Seq fitted mean relative fluorescence mCherry/BFP with ligand (log10 relative fluorescence); HEK293T overexpressing SLC46A1; ligand concentration (+) FACS-Seq: 6 mM; higher = higher reporter protein expression; details: with (6R,S)-folinic acid; ligand present: yes
Procedure, shortened: as §1

(6R,S)-folinic acid [4] = variants of: B1; experiment: normalized RNA/DNA level with ligand (relative to sTRSVctl = 100) (log10 (% of sTRSVctl)); HEK293T overexpressing SLC46A1; ligand concentration (+) RNA-Seq: 6 mM; higher = less ribozyme self-cleavage, higher mRNA level; details: with (6R,S)-folinic acid; ligand present: yes
Procedure, shortened: as §2

| Variant | FACS-Seq fitted mean (log10) ((6R,S)-folinic acid [1]) | normalized RNA/DNA level without ligand (log10) ((6R,S)-folinic acid [2]) | FACS-Seq fitted mean (log10) ((6R,S)-folinic acid [3]) | normalized RNA/DNA level with ligand (log10) ((6R,S)-folinic acid [4]) |
| --- | --- | --- | --- | --- |
| UUCCAA | 0.112 ± 0.15 | 1.992 ± 0.0026 | 0.213 ± 0.13 | 2 ± 0.028 |
| CUAGGU | 0.652 ± 0.16 | 2.024 ± 0.0033 | 0.694 ± 0.027 | 2.05 ± 0.028 |
| CUAGGC | 0.0076 ± 0.12 | 2.005 ± 0.0013 | 0.186 ± 0.24 | 2 ± 0.028 |
| UUAGGG | 0.0949 ± 0.0093 | 1.776 ± 0.008 | 0.324 ± 0.11 | 2 ± 0.021 |
| UUAGGA | 0.674 ± 0.033 | 1.879 ± 0.014 | 0.677 ± 0.022 | 2 ± 0.045 |
| UUAGGC | 0.366 ± 0.0042 | 1.974 ± 0.0042 | 0.465 ± 0.26 | 2 ± 0.058 |
| AUAUAU | 0.272 ± 0.026 | 1.947 ± 0.011 | 0.459 ± 0.073 | 1.99 ± 0.02 |
| AUAUAC | 0.205 ± 0.083 | 1.994 ± 0.015 | 0.279 ± 0.065 | 2 ± 0.041 |
| AUAUAG | 0.309 ± 0.028 | 1.91 ± 0.021 | 0.295 ± 0.25 | 2 ± 0.022 |
| AUGGAC | 0.279 ± 0.031 | 1.955 ± 0.0055 | 0.259 ± 0.12 | 1.99 ± 0.022 |
| AUGGAG | 0.271 ± 0.039 | 1.735 ± 0.0043 | 0.622 ± 0.21 | 1.97 ± 0.02 |
| AUGGAA | 0.0999 ± 0.019 | 1.919 ± 0.0071 | -0.0772 ± 0.045 | 1.993 ± 0.0063 |
| GUAUAG | 0.256 ± 0.031 | 1.94 ± 0.0061 | 0.546 ± 0.096 | 2.01 ± 0.048 |
| AUGAUG | 0.408 ± 0.071 | 1.87 ± 0.023 | 0.544 ± 0.23 | 1.98 ± 0.023 |
| AUGAUU | 0.418 ± 0.17 | 1.989 ± 0.0036 | 0.334 ± 0.023 | 2.02 ± 0.027 |
| GUGAGA | 0.474 ± 0.23 | 1.973 ± 0.013 | 0.54 ± 0.081 | 2.02 ± 0.022 |
| GUGAGG | 0.394 ± 0.093 | 1.872 ± 0.0053 | 0.497 ± 0.2 | 2.015 ± 0.0075 |
| CUCUUA | 0.211 ± 0.012 | 2.0064 ± 0.0006 | 0.143 ± 0.3 | 2 ± 0.03 |
| CUAGAU | 0.368 ± 0.079 | 1.957 ± 0.0032 | 0.387 ± 0.061 | 2 ± 0.028 |
| UUAUUG | 0.469 ± 0.069 | 1.82 ± 0.035 | 0.551 ± 0.16 | 1.97 ± 0.038 |
| UUAUUU | 0.415 ± 0.024 | 1.982 ± 0.0056 | 0.569 ± 0.26 | 2 ± 0.022 |
| GUAUCA | 0.376 ± 0.03 | 2.045 ± 0.01 | 0.586 ± 0.01 | 2.04 ± 0.03 |
| AUCGCU | 0.152 ± 0.036 | 2.026 ± 0.01 | 0.222 ± 0.45 | 2.013 ± 0.015 |
| GUCACC | 0.379 ± 0.15 | 2.07 ± 0.021 | 0.061 ± 0.042 | 2.063 ± 0.013 |

| Variant | FACS-Seq fitted mean (log10) ((6R,S)-folinic acid [1]) | normalized RNA/DNA level without ligand (log10) ((6R,S)-folinic acid [2]) | FACS-Seq fitted mean (log10) ((6R,S)-folinic acid [3]) | normalized RNA/DNA level with ligand (log10) ((6R,S)-folinic acid [4]) |
| --- | --- | --- | --- | --- |
| GUCACG | 0.0918 ± 0.029 | 2.024 ± 0.0084 | 0.228 ± 0.096 | 2.042 ± 0.015 |
| UUCGGC | 0.0747 ± 0.019 | 2.043 ± 0.013 | -0.314 ± 0.0053 | 2.04 ± 0.054 |
| CUGGAU | 0.302 ± 0.025 | 1.966 ± 0.018 | 0.179 ± 0.028 | 2.02 ± 0.022 |
| CUGGAA | 0.184 ± 0.035 | 1.9175 ± 0.00021 | 0.243 ± 0.021 | 1.97 ± 0.028 |
| GUGAAU | 0.0592 ± 0.055 | 1.944 ± 0.0083 | 0.217 ± 0.099 | 2 ± 0.043 |
| GUGAAA | -0.0108 ± 0.075 | 1.956 ± 0.0062 | 0.313 ± 0.017 | 1.981 ± 0.016 |
| GUGAAG | 0.207 ± 0.012 | 1.9352 ± 0.0013 | 0.436 ± 0.27 | 2.02 ± 0.043 |
| GUCGAU | 0.179 ± 0.051 | 1.986 ± 0.015 | 0.225 ± 0.17 | 2.02 ± 0.026 |
| GUCGAC | 0.479 ± 0.017 | 1.965 ± 0.0058 | 0.62 ± 0.022 | 2.025 ± 0.0097 |
| AUAUGU | 0.367 ± 0.12 | 1.9129 ± 0.00064 | 0.417 ± 0.46 | 2.0205 ± 0.0011 |
| AUAUGG | 0.12 ± 0.066 | 1.867 ± 0.0088 | 0.307 ± 0.19 | 2 ± 0.034 |
| AUAUGA | 0.209 ± 0.013 | 1.976 ± 0.004 | 0.342 ± 0.096 | 2.01 ± 0.034 |
| AUCUGG | 0.349 ± 0.012 | 1.92 ± 0.023 | 0.27 ± 0.019 | 2.02 ± 0.042 |
| AUAUCC | 0.455 ± 0.027 | 2.0352 ± 0.00073 | 0.839 ± 0.019 | 2.03 ± 0.039 |
| UUGCUA | 0.353 ± 0.027 | 2.002 ± 0.0079 | 0.377 ± 0.051 | 2.04 ± 0.026 |
| AUGCAA | 0.349 ± 0.0069 | 1.9632 ± 0.00072 | 0.36 ± 0.083 | 1.976 ± 0.011 |
| AUGCAC | 0.724 ± 0.038 | 2.001 ± 0.0052 | 0.703 ± 0.1 | 2.014 ± 0.01 |
| CUCGAG | 0.167 ± 0.042 | 1.96 ± 0.02 | 0.115 ± 0.2 | 1.977 ± 0.012 |
| GUCUAU | 0.0107 ± 0.49 | 2 ± 0.014 | 0.473 ± 0.4 | 2.02 ± 0.026 |
| GUCGUA | 0.666 ± 0.21 | 2.0187 ± 0.00087 | 0.497 ± 0.34 | 2.01 ± 0.025 |
| UUGAUG | 0.136 ± 0.018 | 1.797 ± 0.0018 | 0.436 ± 0.22 | 1.99 ± 0.046 |
| GUGAUA | 0.573 ± 0.073 | 1.97 ± 0.017 | 0.371 ± 0.036 | 2 ± 0.022 |
| AUAGUG | 0.15 ± 0.12 | 1.59 ± 0.023 | 0.795 ± 0.071 | 1.93 ± 0.024 |
| AUAGUA | 0.293 ± 0.042 | 1.93 ± 0.027 | 0.273 ± 0.21 | 1.97 ± 0.019 |

| Variant | FACS-Seq fitted mean (log10) ((6R,S)-folinic acid [1]) | normalized RNA/DNA level without ligand (log10) ((6R,S)-folinic acid [2]) | FACS-Seq fitted mean (log10) ((6R,S)-folinic acid [3]) | normalized RNA/DNA level with ligand (log10) ((6R,S)-folinic acid [4]) |
| --- | --- | --- | --- | --- |
| UUAUAG | 0.192 ± 0.026 | 1.8081 ± 0.0015 | 0.396 ± 0.16 | 1.99 ± 0.034 |
| UUAUAC | 0.677 ± 0.11 | 1.994 ± 0.012 | 0.593 ± 0.097 | 1.99 ± 0.036 |
| UUAUCU | 0.453 ± 0.099 | 2.0125 ± 0.0014 | 0.133 ± 0.1 | 2.03 ± 0.0072 |
| UUGAAA | 0.358 ± 0.051 | 1.936 ± 0.014 | 0.286 ± 0.27 | 2.02 ± 0.028 |
| UUGAAG | 0.386 ± 0.00085 | 1.75 ± 0.026 | 0.374 ± 0.21 | 1.981 ± 0.0095 |
| UUCGAG | 0.119 ± 0.084 | 1.77 ± 0.033 | 0.699 ± 0.054 | 1.97 ± 0.055 |
| AUCUCG | 0.399 ± 0.02 | 1.976 ± 0.012 | 0.435 ± 0.35 | 2.04 ± 0.035 |
| UUGCAG | 0.439 ± 0.019 | 1.886 ± 0.0031 | 0.636 ± 0.033 | 2 ± 0.042 |
| CUCGCU | 0.424 ± 0.087 | 2.06 ± 0.044 | 0.349 ± 0.091 | 2.02 ± 0.038 |
| CUCGCA | 0.235 ± 0.086 | 2.06 ± 0.013 | 0.416 ± 0.3 | 2.062 ± 0.011 |
| CUCCGG | 0.136 ± 0.061 | 2.044 ± 0.0029 | -0.307 ± 0.12 | 2.05 ± 0.028 |
| CUCCGC | 0.443 ± 0.04 | 2.042 ± 0.0057 | 0.294 ± 0.047 | 1.985 ± 0.019 |
| AUCAGU | -0.132 ± 0.056 | 1.97 ± 0.021 | -0.238 ± 0.53 | 1.996 ± 0.017 |
| GUGGAC | 0.143 ± 0.12 | 1.868 ± 0.016 | -0.011 ± 0.21 | 1.975 ± 0.0039 |
| AUAUUG | 0.176 ± 0.067 | 1.896 ± 0.0041 | 0.136 ± 0.13 | 1.97 ± 0.011 |
| AUAUUC | -0.738 ± 0.81 | 2.035 ± 0.019 | -1.5 ± 0.9 | 2.031 ± 0.01 |
| GUCAGG | 0.338 ± 0.065 | 1.938 ± 0.015 | 0.29 ± 0.076 | 1.974 ± 0.018 |
| UUCUAG | 0.502 ± 0.03 | 1.879 ± 0.0029 | 0.872 ± 0.074 | 1.99 ± 0.044 |
| UUCUAA | 0.64 ± 0.015 | 2.014 ± 0.011 | 0.66 ± 0.067 | 2.01 ± 0.026 |
| CUAUUU | 0.149 ± 0.064 | 1.984 ± 0.0088 | -0.0506 ± 0.019 | 1.984 ± 0.016 |
| CUAUUG | 0.309 ± 0.21 | 2.023 ± 0.011 | 0.316 ± 0.2 | 2.01 ± 0.0053 |
| UUCAGG | 0.449 ± 0.081 | 1.894 ± 0.0032 | 0.666 ± 0.2 | 1.98 ± 0.057 |
| GUCUGC | 0.325 ± 0.12 | 2.025 ± 0.0038 | 0.295 ± 0.085 | 2.07 ± 0.053 |
